Test results as given in patent US20050106100A1, “Compounds containing matrix metalloproteinase substrates and methods of their use” (priority 2003, published 2005).

Assays:
[1] = system: CC(=O)N1CCC[C@H]1C(=O)N[C@@H](CC(C)C)C(=O)NCC(=O)N[C@@H](CCc1ccccc1)C(=O)N[C@@H](Cc1ccc(O)cc1)C(=O)N[C@@H](CC(C)C)C(=O)NNC(=O)c1ccc(N/N=C/c2ccccc2S(=O)(=O)ON)nc1; experiment: Kinetic measurements of substrate hydrolysis by active MMP-9 (radio HPLC assay); type: biochemical, human; settings: other: active MMP-9 final concentration 2 nM, 37° C., 60 minutes, radiolabeled test substrate, pH 7.5
Protocol: (§1) Purified MMP-2 (10 μg) or MMP-9 (10 μg) were reconstituted in 100 μL of TCN buffer. […] Pro-MMP-2 was activated by incubation with 2 nM APMA for 2 hours at 37° C. At the end of incubation 100 μl of 100% glycerol was added to active MMP-2 and active MMP-9 (final concentration 50% glycerol). Active MMP-2 and active MMP-9 were aliquoted and stored at −20° C.
(§2) The level of active protease was always quantified by active site titration studies prior to kinetic studies. The active site of MMP-9 and MMP-2 was titrated using the GM6001 dissolved in 100% DMSO at a stock concentration of 2.5 mM. Dilutions (1:2) of GM6001 were prepared in TCN buffer to give a final concentration of 5 nM to 0.04 nM GM6001 in the active site titration assay. Activated MMP-2 or activated MMP-9 (2 nM) was preincubated with increasing concentrations of GM60001 at 37° C. for 15 minutes in 96 well black microtiter plates. […] Plates were read on fluorescence spectrophotometer at excitation wavelength of 320 nm and emission wavelength of 395 nm. The concentration of the active enzyme was determined using the Morrison equation and Kaleidagraph software (Reading, Pa.).
(§3) The kinetic parameters of substrate hydrolysis were determined using a radio HPLC assay. The turnover of different substrates by active MMP-2 and active MMP-9 was determined using this assay. […] The radiolabel was detected by a IN/US beta ram detector. […]

[2] = system: CC(=O)N1CCC[C@H]1C(=O)N[C@@H](CCCN)C(=O)NCC(=O)N[C@@H](CCc1ccccc1)C(=O)N[C@@H](CC(C)C)C(=O)NNC(=O)c1ccc(N/N=C/c2ccccc2S(=O)(=O)O)nc1; experiment: as above; type: biochemical, human; settings: other: active MMP-9 final concentration 2 nM, 37° C., 60 minutes, radiolabeled test substrate, pH 7.5
Protocol: as §1, §2, §3

Sequence of MMP-9 (Homo sapiens) (chain, as listed by the source): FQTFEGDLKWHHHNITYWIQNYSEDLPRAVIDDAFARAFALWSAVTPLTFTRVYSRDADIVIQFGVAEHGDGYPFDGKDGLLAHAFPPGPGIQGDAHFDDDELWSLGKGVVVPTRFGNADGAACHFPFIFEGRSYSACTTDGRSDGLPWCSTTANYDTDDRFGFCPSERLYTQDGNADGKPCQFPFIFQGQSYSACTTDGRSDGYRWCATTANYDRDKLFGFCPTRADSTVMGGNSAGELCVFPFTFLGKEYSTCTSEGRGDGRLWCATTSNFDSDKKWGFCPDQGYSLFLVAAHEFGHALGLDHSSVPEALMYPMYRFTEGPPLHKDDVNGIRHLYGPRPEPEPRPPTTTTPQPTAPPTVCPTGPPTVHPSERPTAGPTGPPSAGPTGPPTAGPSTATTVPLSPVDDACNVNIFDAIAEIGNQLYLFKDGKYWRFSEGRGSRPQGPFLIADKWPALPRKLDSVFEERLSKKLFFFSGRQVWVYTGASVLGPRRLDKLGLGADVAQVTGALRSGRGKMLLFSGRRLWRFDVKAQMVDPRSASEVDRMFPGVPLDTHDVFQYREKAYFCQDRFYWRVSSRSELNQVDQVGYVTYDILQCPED

Substance: MMP-9 (Homo sapiens)
- kcat/Km [1]: > 100000 M⁻¹ s⁻¹
- kcat/Km [2]: 4450 M⁻¹ s⁻¹
